The values that follow are results of earlier work, collected in paper PMC12609503.

For data set [1], the target named is GnRH receptor (pituitary membrane) (Rattus norvegicus) (UniProt P30969). In words: radioligand saturation binding.
Data set [2] addresses GnRH receptor (LN-CaP cells) (Homo sapiens) (UniProt P30968). The data set can be described thus: cell binding assay.
Chain of UniProt P30968 (P30968 whole entry): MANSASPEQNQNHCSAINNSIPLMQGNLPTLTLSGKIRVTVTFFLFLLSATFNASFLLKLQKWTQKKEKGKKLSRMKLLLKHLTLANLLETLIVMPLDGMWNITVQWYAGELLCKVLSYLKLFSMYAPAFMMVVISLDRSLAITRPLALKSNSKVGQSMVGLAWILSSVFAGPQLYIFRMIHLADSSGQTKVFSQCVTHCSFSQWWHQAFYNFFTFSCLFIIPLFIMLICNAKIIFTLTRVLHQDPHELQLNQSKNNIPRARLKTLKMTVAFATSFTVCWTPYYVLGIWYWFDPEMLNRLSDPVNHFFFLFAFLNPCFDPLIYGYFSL

Chain of UniProt P30969 (P30969 whole entry): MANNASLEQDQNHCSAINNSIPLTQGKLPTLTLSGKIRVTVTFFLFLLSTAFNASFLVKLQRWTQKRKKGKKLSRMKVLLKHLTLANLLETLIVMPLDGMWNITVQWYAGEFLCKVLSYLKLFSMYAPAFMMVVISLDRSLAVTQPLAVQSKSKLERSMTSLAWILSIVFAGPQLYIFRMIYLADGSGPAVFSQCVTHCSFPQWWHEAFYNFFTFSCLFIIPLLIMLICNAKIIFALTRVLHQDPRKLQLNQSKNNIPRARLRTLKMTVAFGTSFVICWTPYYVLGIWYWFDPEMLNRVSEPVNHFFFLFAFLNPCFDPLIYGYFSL

A word on the Kd: it is the free concentration of one partner at which half of the binding sites on the other are occupied at equilibrium, for simple one-to-one binding. Regarding 125I-LHRH (from UniProt P01148), in data set [1], the Kd is 0.435 nM.

Regarding “99mTc-HYNIC-GABA-DLys6-GnRH (from UniProt P01148)”, the dissociation constant Kd in data set [2] was 89 nM.

“99mTc-HYNIC-Ahx-DLys6-GnRH (from UniProt P01148)”: the Kd in data set [2] was 42 nM.
